Test results published in publication PMC4879639 (2016).

T1: recombinant mouse sortilin (mouse, UniProt Q6PHU5 74-754)
T1 chain: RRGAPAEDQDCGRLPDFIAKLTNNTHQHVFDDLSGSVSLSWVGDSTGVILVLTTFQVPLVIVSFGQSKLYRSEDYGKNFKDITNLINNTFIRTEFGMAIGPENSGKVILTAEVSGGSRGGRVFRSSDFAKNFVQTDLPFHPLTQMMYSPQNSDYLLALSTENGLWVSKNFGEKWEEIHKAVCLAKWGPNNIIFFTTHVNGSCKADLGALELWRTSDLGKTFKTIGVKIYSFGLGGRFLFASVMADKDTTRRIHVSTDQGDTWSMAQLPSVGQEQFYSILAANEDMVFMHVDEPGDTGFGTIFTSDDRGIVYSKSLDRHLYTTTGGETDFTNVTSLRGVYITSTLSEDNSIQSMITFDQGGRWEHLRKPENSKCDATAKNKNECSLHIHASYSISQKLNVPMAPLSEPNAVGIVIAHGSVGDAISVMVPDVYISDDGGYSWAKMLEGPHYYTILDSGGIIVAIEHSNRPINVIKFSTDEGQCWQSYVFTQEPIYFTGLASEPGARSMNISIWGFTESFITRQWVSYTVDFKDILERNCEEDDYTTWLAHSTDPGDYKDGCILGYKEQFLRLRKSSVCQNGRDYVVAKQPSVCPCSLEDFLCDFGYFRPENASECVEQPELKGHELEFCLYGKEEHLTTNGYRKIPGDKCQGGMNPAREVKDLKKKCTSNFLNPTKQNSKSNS


Target: T1, recombinant mouse sortilin
Experiment: SPR

Binder | Kd
recombinant IL-17A (ligand) AAIIPQSSACPNTEAKDFLQNVKVNLKVFNSLGAKVSSRRPSDYLNRSTSPWTLHRNEDPDRYPSVIWEAQCRHQRCVNAEGKLDHHMNSVLIQQEILVLKREPESCPFTFRVEKMLVGVGCTCVASIVRQAA | 335 nM
GST-fused mouse IFN-α (ligand) CDLPHTYNLRNKRALKVLAQMRRLPFLSCLKDRQDFGFPLEKVDNQQIQKAQAIPVLRDLTQQTLNLFTSKASSAAWNATLLDSFCNDLHQQLNDLQTCLMQQVGVQEPPLTQEDALLAVRKYFHRITVYLREKKHSPCAWEVVRAEVWRALSSSVNLLPRLSEEKE | 550 nM
recombinant IFN-γ (ligand) HGTVIESLESLNNYFNSSGIDVEEKSLFLDIWRNWQKDGDMKILQSQIISFYLRLFEVLKDNQAISNNISVIESHLITTFFSNSKAKKDAFMSIAKFEVNNPQVQRQAFNELIRVVHQLLPESSLRKRKRSRC | 2600 nM
recombinant IL-6 (ligand) FPTSQVRRGDFTEDTTPNRPVYTTSQVGGLITHVLWEIVEMRKELCNGNSDCMNNDDALAENNLKLPEIQRNDGCYQTGYNQEICLLKISSGLLEYHSYLEYMKNNLKDNKKDKARVLQRDTETLIHIFNQEVKDLHKIVLPTPISNALLTDKLESQKEWLRTKTIQFILKSLEEFLKVTLRSTRQT | 1100 nM

Now those with a lower Kd, led by results:

Kd | Binder
287 nM | recombinant IL-10 (ligand) SRGQYSREDNNCTHFPVGQSHMLLELRTAFSQVKTFFQTKDQLDNILLTDSLMQDFKGYLGCQALSEMIQFYLVEVMPQAEKHGPEIKEHLNSLGEKLKTLRMRLRRCHRFLPCENKSKAVEQVKSDFNKLQDQGVYKAMNEFDIFINCIEAYMMIKMKS
13.6 nM | recombinant IL-12 (complex) chain 1: RVIPVSGPARCLSQSRNLLKTTDDMVKTAREKLKHYSCTAEDIDHEDITRDQTSTLKTCLPLELHKNESCLATRETSSTTRGSCLPPQKTSLMMTLCLGSIYEDLKMYQTEFQAINAALQNHNHQQIILDKGMLVAIDELMQSLNHNGETLRQKPPVGEADPYRVKMKLCILLHAFSTRVVTINRVMGYLSSA chain 2: MWELEKDVYVVEVDWTPDAPGETVNLTCDTPEEDDITWTSDQRHGVIGSGKTLTITVKEFLDAGQYTCHKGGETLSHSHLLLHKKENGIWSTEILKNFKNKTFLKCEAPNYSGRFTCSWLVQRNMDLKFNIKSSSSSPDSRAVTCGMASLSAEKVTLDQRDYEKYSVSCQEDVTCPTAEETLPIELALEARQQNKYENYSTSFFIRDIIKPDPPKNLQMKPLKNSQVEVSWEYPDSWSTPHSYFSLKFFVRIQRKKEKMKETEEGCNQKGAFLVEKTSTEVQCKGGNVCVQAQDRYYNSSCSKWACVPCRVRS
